Reference: the supplement of paper PMC10567573

B1: SEPHS2 (parent)
chain: KASGRFGLLQGTSAETSGGLLICL
B2: NR2F2 (parent)
chain: VAHVESLQEKSQCALEEYVRSQYP

Variants of: B1
Test: protein stability index of a GFP-peptide fusion (GPS, HEK-293T) (PSI 1-6); higher = more stable
Conditions: c terminus: a fixed tail appended
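Further: lentivirally expressed fusions sorted by FACS into six bins by GFP to DsRed ratio, PSI derived from sequencing read proportions per bin multiplied by bin number.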

Row | Variant | protein stability index
1 | KASGRFGLLQGTSAETSGALLICL [G19A] | 3.71
2 | KASGRFGLLQGTSAETSGQLLICL [G19Q] | 2.1
3 | KASGRFGLLQGTSAETSGHLLICL [G19H] | 1.74
4 | KASGRFGLLQGTSAETSGRLLICL [G19R] | 2.62
5 | KASGRFGKLQGTSAETSGGLLICL [L8K] | 3.37
6 | KASGRFGYLQGTSAETSGGLLICL [L8Y] | 1.85
7 | KASGRFGVLQGTSAETSGGLLICL [L8V] | 3.22
8 | KASGRFGILQGTSAETSGGLLICL [L8I] | 2.17
9 | KASGRFGGLQGTSAETSGGLLICL [L8G] | 3.65
10 | KASGRFGALQGTSAETSGGLLICL [L8A] | 2.02
11 | KASGRFGCLQGTSAETSGGLLICL [L8C] | 3.4
12 | KASGRFGFLQGTSAETSGGLLICL [L8F] | 2.18
13 | KASGRFGMLQGTSAETSGGLLICL [L8M] | 2.26
14 | KASGRFGWLQGTSAETSGGLLICL [L8W] | 2.08
15 | KASGRFGLLQGTSLETSGGLLICL [A14L] | 2.44
16 | KASGRFGLLQGTSYETSGGLLICL [A14Y] | 2.24
17 | KASGRFGLLQGTSCETSGGLLICL [A14C] | 1.81
18 | KASGRFGLLQGTSTETSGGLLICL [A14T] | 1.72
19 | KASGRFGLLQGTSNETSGGLLICL [A14N] | 2.93
20 | KASGRFGLLQGTSQETSGGLLICL [A14Q] | 3.85
21 | KASGRFGLLQGTSEETSGGLLICL [A14E] | 2.62
22 | KASGRFGLLQGTSHETSGGLLICL [A14H] | 2.43
23 | KASGRFGLLQGTSADTSGGLLICL [E15D] | 2.1

Row | Variant | protein stability index
24 | KASGRFGLLQGTSAWTSGGLLICL [E15W] | 1.66
25 | KASGRFGLLQGTSAATSGGLLICL [E15A] | 2.02
26 | KASGRFGLLQGTSAYTSGGLLICL [E15Y] | 4.55
27 | KASGRFGLLQGTSAITSGGLLICL [E15I] | 1.91
28 | KASGRFGLLQGTSATTSGGLLICL [E15T] | 2.48
29 | KASGRFGLLQGTSACTSGGLLICL [E15C] | 2.82
30 | KASGRFGLLQGTSARTSGGLLICL [E15R] | 1.37
31 | KASTRFGLLQGTSAETSGGLLICL [G4T] | 3.11
32 | KASSRFGLLQGTSAETSGGLLICL [G4S] | 3.04
33 | KASERFGLLQGTSAETSGGLLICL [G4E] | 3.09
34 | KASPRFGLLQGTSAETSGGLLICL [G4P] | 1.95
35 | KASQRFGLLQGTSAETSGGLLICL [G4Q] | 2.76
36 | KASDRFGLLQGTSAETSGGLLICL [G4D] | 2.9
37 | KASLRFGLLQGTSAETSGGLLICL [G4L] | 2.01
38 | KASKRFGLLQGTSAETSGGLLICL [G4K] | 3.51
39 | KASGRFGLLQGTSAETFGGLLICL [S17F] | 2.78
40 | KASGRFGLLQGTSAETGGGLLICL [S17G] | 2.08
41 | KASGRFGLLQGTSAETWGGLLICL [S17W] | 3.02
42 | KASGRFGLLQGTSAETLGGLLICL [S17L] | 1.18
43 | KASGRFGLLQGTSAETNGGLLICL [S17N] | 2.67
44 | KASGRFGLLQGTSAETSGGLAICL [L21A] | 1.04
45 | KASGRFGLLQGTSAETSGGLTICL [L21T] | 2.38
46 | KASGRFGLLQGTSAETSGGLGICL [L21G] | 1.53

Row | Variant | protein stability index
47 | KASGRFGLLQGTSAETSGGLEICL [L21E] | 1.38
48 | KASGRFGLLQGTSAETSGGLMICL [L21M] | 2.35
49 | KASGRFGLLQGTSAETSGGLNICL [L21N] | 2.94
50 | KASGRFGLLQGTSAETSGGLYICL [L21Y] | 1.32
51 | KASGRFGLLQGTSAETSGGLQICL [L21Q] | 2.08
52 | KASGRFGLLQGTSAETSGGLKICL [L21K] | 1.45
53 | KASGRFGLLQGTSAETSGGLRICL [L21R] | 1.57
54 | KASGRFGLLQGTSAETSGGLSICL [L21S] | 2.68
55 | KASGRFGLLQGTSAETSGGLHICL [L21H] | 2.21
56 | KASGRFGLLQGTSAETSGGLDICL [L21D] | 2.12
57 | KASGRFGLLQGTSAETSGGLPICL [L21P] | 2.44
58 | KASGRFGLLQGTSAETSGGLVICL [L21V] | 2.08
59 | KASGRSGLLQGTSAETSGGLLICL [F6S] | 1.81
60 | KASGRIGLLQGTSAETSGGLLICL [F6I] | 2.31
61 | KASGREGLLQGTSAETSGGLLICL [F6E] | 2.37
62 | KASGRKGLLQGTSAETSGGLLICL [F6K] | 1.79
63 | KASGRLGLLQGTSAETSGGLLICL [F6L] | 2.48
64 | KASGRTGLLQGTSAETSGGLLICL [F6T] | 3.52
65 | KASGRYGLLQGTSAETSGGLLICL [F6Y] | 1.75
66 | KASGRVGLLQGTSAETSGGLLICL [F6V] | 1.57
67 | KASGRQGLLQGTSAETSGGLLICL [F6Q] | 2.79
68 | KASGRDGLLQGTSAETSGGLLICL [F6D] | 1.03
69 | KASGRWGLLQGTSAETSGGLLICL [F6W] | 4.73

Row | Variant | protein stability index
70 | KASGRMGLLQGTSAETSGGLLICL [F6M] | 2.44
71 | KASGRFGLYQGTSAETSGGLLICL [L9Y] | 2.09
72 | KASGRFGLRQGTSAETSGGLLICL [L9R] | 2.98
73 | KASGRFGLNQGTSAETSGGLLICL [L9N] | 1.78
74 | KASGRFGLVQGTSAETSGGLLICL [L9V] | 1.74
75 | KASGRFGLEQGTSAETSGGLLICL [L9E] | 2.76
76 | KASGRFGLPQGTSAETSGGLLICL [L9P] | 2.32
77 | KASGRFGLIQGTSAETSGGLLICL [L9I] | 2.41
78 | KASGRFALLQGTSAETSGGLLICL [G7A] | 3.63
79 | KASGRFWLLQGTSAETSGGLLICL [G7W] | 2.21
80 | KASGRFDLLQGTSAETSGGLLICL [G7D] | 3.42
81 | KASGRFLLLQGTSAETSGGLLICL [G7L] | 3.5
82 | KASGRFSLLQGTSAETSGGLLICL [G7S] | 2.55
83 | KASGRFHLLQGTSAETSGGLLICL [G7H] | 2.78
84 | KASGRFILLQGTSAETSGGLLICL [G7I] | 2.32
85 | KASGRFNLLQGTSAETSGGLLICL [G7N] | 2.13
86 | KASGRFKLLQGTSAETSGGLLICL [G7K] | 3.27
87 | KASGRFTLLQGTSAETSGGLLICL [G7T] | 1.88
88 | KASGRFYLLQGTSAETSGGLLICL [G7Y] | 2.71
89 | KASGRFGLLQGLSAETSGGLLICL [T12L] | 3.67
90 | KASGRFGLLQGESAETSGGLLICL [T12E] | 2.52
91 | KASGRFGLLQGFSAETSGGLLICL [T12F] | 3.31

Variants of: B2
Test: as above
Conditions: c terminus: a fixed tail appended

Row | Variant | protein stability index
92 | VAHVESLQWKSQCALEEYVRSQYP [E9W] | 2.27
93 | VAHVESLQEKSQCALEEYVRSQNP [Y23N] | 4.74
94 | VAHVESLQEKSQCALEFYVRSQYP [E17F] | 2.34
